Test results: patent US20250179160A1

What was measured:
[1] = molecular target: recombinant human Pro-Factor D (human) (UniProt P00746); experiment: ELISA: antibody titrated 3-fold from 3 ug/ml on plate coated with 1 ug/ml recombinant human pro-Factor D; HRP anti-mouse, rat or human secondary; OD450
[2] = molecular target: recombinant human mature Factor D (human) (UniProt P00746); experiment: ELISA: antibody titrated 3-fold from 3 ug/ml on plate coated with 1 ug/ml recombinant human mature Factor D; HRP anti-mouse, rat or human secondary; OD450

Substance: MAB18241 (antibody)
- EC50 (read off the curve) [1]: 0.02 µg/mL
- EC50 (read off the curve) [2]: 0.04 µg/mL
